Assays:
[1] = system: T1, SAStide-Cy5 (Syk Artificial Substrate peptide conjugated with Cy5)
T1 sequence: GGDEEDYEEPDEPGGCGG

[2] = system: T2, 5-FAM-SFAStide-A (Src-Family kinase Artificial Substrate peptide)
T2 sequence: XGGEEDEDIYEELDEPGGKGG

Syk-His6 (His6-tagged spleen tyrosine kinase)
TR-LRET emission (Cy5 fluorescence signal) over the time course of an in vitro kinase reaction [1]: TR-LRET emission spectra for each respective biosensor displayed an increase in the conjugated dye's fluorescence signal | TR-LRET emission (5-FAM fluorescence signal) in the in vitro kinase reaction with Syk only [2]: with minimal bleed through or background interference from the fluorophore attached to the other biosensor

Syk-EGFP
ELISA-based chemifluorescence (anti-phosphotyrosine 4G10, HRP secondary, Amplex Red) of an in vitro kinase reaction [1]: the ELISA-based assay displayed increasing fluorescent signal over time for the appropriately match substrates
